T1: RecD2 (His-tagged) (Bacillus subtilis, UniProt O34481 1-798)
T1 sequence: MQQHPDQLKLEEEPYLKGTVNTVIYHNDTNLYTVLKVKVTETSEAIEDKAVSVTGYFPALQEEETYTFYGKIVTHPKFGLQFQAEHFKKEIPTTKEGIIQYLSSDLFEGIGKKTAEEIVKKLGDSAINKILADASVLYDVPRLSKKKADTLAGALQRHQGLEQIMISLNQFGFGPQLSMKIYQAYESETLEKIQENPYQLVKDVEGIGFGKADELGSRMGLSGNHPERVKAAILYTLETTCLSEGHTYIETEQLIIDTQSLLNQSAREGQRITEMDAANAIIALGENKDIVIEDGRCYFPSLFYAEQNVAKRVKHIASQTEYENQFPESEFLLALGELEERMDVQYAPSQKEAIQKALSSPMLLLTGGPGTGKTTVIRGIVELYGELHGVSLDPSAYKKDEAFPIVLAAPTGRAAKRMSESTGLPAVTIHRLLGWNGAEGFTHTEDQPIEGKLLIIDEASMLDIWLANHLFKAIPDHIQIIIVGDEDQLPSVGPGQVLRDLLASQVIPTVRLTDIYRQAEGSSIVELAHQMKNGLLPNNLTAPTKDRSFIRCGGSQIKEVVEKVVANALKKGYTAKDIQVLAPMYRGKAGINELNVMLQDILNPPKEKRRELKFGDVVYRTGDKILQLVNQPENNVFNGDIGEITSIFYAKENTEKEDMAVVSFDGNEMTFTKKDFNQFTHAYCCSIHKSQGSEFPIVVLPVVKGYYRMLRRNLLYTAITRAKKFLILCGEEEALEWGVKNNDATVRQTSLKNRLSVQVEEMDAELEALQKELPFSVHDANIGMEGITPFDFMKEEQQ


Experiments:
RecD2 (His-tagged) [1] = target: T1, RecD2 (His-tagged); experiment: EMSA; conditions: 2 mM MgCl2, 1 mM ATPgS, EMSA: 0.25 nM 32P-DNA, buffer B (composition not in material), 2 mM MgCl2 (or 10 mM), 15 min 37 C, then 0.05% glutaraldehyde 15 min 37 C, 8% PAGE …
RecD2 (His-tagged) [2] = target: T1, RecD2 (His-tagged); experiment: EMSA; 2 mM MgCl2, 1 mM ATPgS; EMSA: 0.25 nM 32P-DNA, buffer B (composition not in material), 1 mM ATPgS, 2 mM MgCl2 (or 10 mM), 15 min 37 C, then 0.05% glutaraldehyde 15 min 37 C, 8% PAGE; single-molecule: buffer A (composition not in material); conditions: protein: recombinant; tags: 6xHis (not removed); label: 32P
RecD2 (His-tagged) [3] = target: T1, RecD2 (His-tagged); experiment: EMSA; 10 mM MgCl2, 1 mM ATPgS; EMSA: 0.25 nM 32P-DNA, buffer B (composition not in material), 1 mM ATPgS, 2 mM MgCl2 (or 10 mM), 15 min 37 C, then 0.05% glutaraldehyde 15 min 37 C, 8% PAGE; single-molecule: buffer A (composition not in material); conditions: protein: recombinant; tags: 6xHis (not removed); label: 32P
[4] = substrate: Nc1ncnc2c1ncn2[C@@H]1O[C@H](COP(=O)(O)OP(=O)(O)OP(=O)(O)O)[C@@H](O)[C@H]1O; experiment: coupled ATP/NADH spectrophotometric ATPase assay, Michaelis-Menten fit; assay type: biochemical, Bacillus subtilis; conditions: ssDNA cofactor dT80 (3 μM nucleotides), 5 nM RecD2, 2 mM MgCl2, pH 7.5, 37 °C, turnover printed as Vmax per RecD2

Row | Molecule | apparent K (half saturation) (RecD2 (His-tagged) [2]) [nM] | apparent K (half saturation) (RecD2 (His-tagged) [3]) [nM] | also measured
1 | 5'-tailed duplex (30 nt tail) |  |  | K half (RecD2 (His-tagged) [1]): 16 nM
2 | 3'-tailed duplex (30 nt tail) |  |  | K half (RecD2 (His-tagged) [1]): 14 nM
3 | 80-nt random ssDNA (17-M-80) (ssDNA) DNA: ACGGCCTAGAACGGCCTAGAACGGCCTAGATCGTGAACCTGCAGGTAAGGGGCTGCTCATCGTAGGTTAGCGTAAATTAG | 11.1 ± 5.4 | 39.1 ± 15.4 | 
4 | RecD2 (BsRecD2) (Bacillus subtilis subsp. subtilis str. 168) (protein) MQQHPDQLKLEEEPYLKGTVNTVIYHNDTNLYTVLKVKVTETSEAIEDKAVSVTGYFPALQEEETYTFYGKIVTHPKFGLQFQAEHFKKEIPTTKEGIIQYLSSDLFEGIGKKTAEEIVKKLGDSAINKILADASVLYDVPRLSKKKADTLAGALQRHQGLEQIMISLNQFGFGPQLSMKIYQAYESETLEKIQENPYQLVKDVEGIGFGKADELGSRMGLSGNHPERVKAAILYTLETTCLSEGHTYIETEQLIIDTQSLLNQSAREGQRITEMDAANAIIALGENKDIVIEDGRCYFPSLFYAEQNVAKRVKHIASQTEYENQFPESEFLLALGELEERMDVQYAPSQKEAIQKALSSPMLLLTGGPGTGKTTVIRGIVELYGELHGVSLDPSAYKKDEAFPIVLAAPTGRAAKRMSESTGLPAVTIHRLLGWNGAEGFTHTEDQPIEGKLLIIDEASMLDIWLANHLFKAIPDHIQIIIVGDEDQLPSVGPGQVLRDLLASQVIPTVRLTDIYRQAEGSSIVELAHQMKNGLLPNNLTAPTKDRSFIRCGGSQIKEVVEKVVANALKKGYTAKDIQVLAPMYRGKAGINELNVMLQDILNPPKEKRRELKFGDVVYRTGDKILQLVNQPENNVFNGDIGEITSIFYAKENTEKEDMAVVSFDGNEMTFTKKDFNQFTHAYCCSIHKSQGSEFPIVVLPVVKGYYRMLRRNLLYTAITRAKKFLILCGEEEALEWGVKNNDATVRQTSLKNRLSVQVEEMDAELEALQKELPFSVHDANIGMEGITPFDFMKEEQQ |  |  | Km [4]: 82 µM; kcat [4]: ~223 s⁻¹
5 | TTTTTTTTTTTTTTTTTTTTTTTTTTTTTT (ssDNA) [poly(dT)30] | ~6 |  | 
6 | 60-nt random ssDNA (17-M-60) (ssDNA) DNA: ACGGCCTAGATCGTGAACCTGCAGGTAAGGGGCTGCTCATCGTAGGTTAGCGTAAATTAG | 13.5 ± 4.2 | 44.2 ± 14.1 | 
7 | CTAATTTACGCTAACCTACGATGAGCAGCC (ssDNA) [30-nt random ssDNA (22-M-30)] | 212 ± 17.7 | 246 ± 20.2 | 

From article PMC12143592, “Bacterial RecD2 is a processive single-stranded DNA translocase with strand-switching capacity at DNA forks” (Nucleic Acids Research, 2025)
